Results: patent publication US10709761B2, “Methods and compositions for preventing or treating cancer” (UNIVERSITY OF UTAH RESEARCH FOUNDATION, priority 2015, dated 2020)

B1: EP53^anc: ancestral elephant TP53 gene (SEQ ID NO: 2) encoding elephant p53 protein (SEQ ID NO: 3), expressed from vector in cells (protein, listed as Loxodonta africana)
chain: MEEPQSDLSTELPLSQETFSYLWELLPENPVLSPTLPPAVEVMDDLLLSEDTANWLESQVEAQGMSTTPAPATPTPVAPAPATSWTLSSSVPSQKTYPGTYGFRLGFLHSGTAKSVTCTYSPDLNKLFCQLAKTCPVQLWVASPPPPGTRVRTMAIYKKSEHMTEVVKRCPHHERCSDSSDGLAPPQHLIRVEGNLRAEYLEDSITLRHSVVVPYEPPEVGSDCTTIHFNFMCNSSCMGGMNRRPILTIITLEDSSGNLLGRNSFEVRICACPGRDRRTEEENFHKKGEPCPEPPPPGRSTKRALPTNTSSSTQPKKKPLDEEYFTLQIRGRERFKMFLELNEALELKDAQAGKEPEGSRAHSSPSKSKKGQSTSRHKKPMFKREGPDSD

Tests used:
[1] = tested on: African elephant lymphocytes; assay: Annexin V / propidium iodide apoptosis after doxorubicin, elephant lymphocytes; type: cell-based; details: 5 μM doxorubicin, 18 and 24 hours
Description: Ionizing radiation (0.5, 2, 5, 6, 10, and 20 Gy) or doxorubicin (0.005-30 μM) were used to induce DNA damage in the cultured primary PBLs, which were then evaluated for signs of apoptosis, DNA repair efficiency, and cell cycle arrest. Apoptosis was evaluated by measuring the number of cells that stained for Annexin V (AV) and propidium iodide (PI); cells were categorized as being in late apoptosis if they were AV+PI+, and in early apoptosis if they were AV+PI−. Apoptosis was also measured either using APO-TOX GLO™ (Promega, Madison, Wis.) or CASPASE-GLO® 3/7 Assay (Promega) and […]-GLO® (Promega). The results were normalized to cell viability either using counts from the MULTI-TOX-FLUOR™ assay (Promega) included with APO-TOX GLO™, or using […]-GLO® when caspase activity was measured. Statistically significant differences in apoptosis were calculated in […] PRISM®.

[2] = tested on: human fibroblasts; assay: Caspase 3/7 cleavage after doxorubicin, human fibroblasts; type: cell-based; details: 10 μM and 30 μM doxorubicin
[3] = tested on: elephant fibroblasts; assay: Caspase 3/7 cleavage after doxorubicin, elephant fibroblasts; type: cell-based, African elephant; details: 10 μM and 30 μM doxorubicin
[4] = tested on: U-2OS cells; assay: Caspase activity / apoptosis in U-2OS cells expressing EP53 genes; type: cell-based, human; details: compared to empty vector
Description: U-2OS cells were transfected with EP53^r5 (SEQ ID NO: 12) or EP53 ancestral (EP53^anc) (SEQ ID NO: 2), and then treated with doxycycline to induce EP53^r expression. The cells were then treated with doxorubicin to damage the DNA.
(§1) U-2OS cells were also transduced with EP53^anc (SEQ ID NO: 2). These cells were then induced to express EP53^anc (SEQ ID NO: 3), and treated with doxorubicin to trigger DNA damage.

[5] = tested on: p53 target genes, p21 and MDM2; assay: Western blot of p53 pathway proteins in U-2OS cells expressing EP53^anc; type: cell-based, human
Description: For tetracycline inducible cells, the cells were treated with doxycycline for 24-48 hours prior to treatment with MG132 or doxorubicin. After the induction of DNA damage, the cells were harvested and pelleted. The cell pellets were frozen, and then lysed in cell lysis buffer containing phosphatase and protease inhibitors. The cell lysates were run on SDS-PAGE protein gels, and then transferred to PVDF membranes (western blots). The membranes were blocked, and then probed with primary antibodies to determine the p53 protein levels. The blots were probed with secondary HRP-conjugated antibodies, and the protein levels were detected using a substrate and a chemiluminometer. GAPDH was used as a loading control for each western blot. The blots were also probed for phosphorylated EP53^r at the serine-15 residue (phospho-EP53^r). DNA damage induces the phosphorylation of p53, which reduces the interaction of this protein with its negative regulator, mouse double minute 2 (MDM2) (Milczarek et al. Life Sci; 60: 1-11 (1997)).
as §1

[6] = tested on: U-2OS cells; assay: U-2OS cell viability after doxycycline induction; type: cell-based, human; details: 72 hours after induction with doxycycline
Description: U-2OS cells were also transfected with EP53^anc (SEQ ID NO: 2) and human TP53, and the cell viability after induction with doxycycline was observed after 72 hours.

[7] = tested on: U-2OS cells; assay: U-2OS caspase activity after doxycycline induction; type: cell-based, human; details: after induction with doxycycline
[8] = U-2OS induced to express, doxorubicin-treated

Molecule | early apoptosis (AV+PI−) [1] | late apoptosis (AV+PI+) [1] | caspase 3/7 cleavage [2] [fold increase] | caspase 3/7 cleavage [3] [fold increase] | increase in caspase activity [4, 8] [fold] | apoptosis ([4]; U-2OS, absence of doxorubicin treatment) | endogenous human p53 expression ([5]; U-2OS cells expressing EP53^anc) | p53 target genes, p21 and MDM2 (western blot) [5, 8] | cell viability [6] [%] | caspase activity [7] [%]
COc1cccc2c1C(=O)c1c(O)c3c(c(O)c1C2=O)C[C@@](O)(C(=O)CO)C[C@@H]3O[C@H]1C[C@H](N)[C@H](O)[C@H](C)O1 [doxorubicin] | significant increase | significant increase | 2.24 | 9.1 | – | – | – | – | – | –
B1 | – | – | – | – | 20 | significant apoptosis | less | increase | 35.6 | 14.22
